Here are results for four molecules from patent US20220073641A1, “FUSION PROTEIN OF ANTIBODY THAT RECOGNIZES CANCER CELLS AND MUTANT STREPTAVIDIN” (The University of Tokyo, priority 2018, published 2022).

For series [1], the system named is MKN45 cells. Briefly: In vivo cytotoxicity test in MKN45 xenograft mouse models with 690 nm light. Further details: species or system nude mice. The note with it: 100 μg complex of CEA-V2122 and Compound 1 via caudal vein; 690 nm 230 J/cm^2 at 6 and 24 hours; pathology on 7th day; FIG. 11, 12. The text has this:
MKN45 cells were subcutaneously transplanted into nude mice to produce xenograft mouse models. That is, 4-week-old female nude mice were purchased, and the mice were then acclimated for 1 week. Thereafter, the MKN45 cells were transplanted in a cell count of 2×10^5 cells per mouse into the subcutis thereof. […] Using an LED light source emitting a light having a wavelength of 690 nm (USHIO OPTO SEMICONDUCTORS, INC., LD690D-66-60-550.), T-Cube LED Driver (THORLABS, NC0713145), and T-CUBE 15V POWER SUPPLY (THORLABS, TPS001), 6 hours after the administration, the mice were irradiated with the light having a wavelength of 690 nm, so that the irradiation energy became 230 J/cm^2. Twenty-four hours after administration of the complex, the mice were irradiated again with the light having a wavelength of 690 nm, so that the irradiation energy became 230 J/cm^2. Individual mice were euthanized on the 7th day after administration of the complex and were then excised, and the tumor portions were subjected to pathological analysis. The specific method is as follows. That is, the subcutaneous tumor of each mouse and the peripheral tissues thereof were excised as a mass, and the mass was then immersed in a 4% paraformaldehyde solution (Wako Pure Chemical Industries, Ltd., 163-20145) at mom temperature overnight, so that the tissues were fixed. […]

For series [2], the system named is MKN45 cells. Briefly: Cytotoxicity test using CEA-V2122 and photoactivatable compound-labeled modified biotins with 690 nm light. The note with it: complex with CEA-V2122 (molar ratio 1:2), 0.039-10 μg/mL, 690±10 nm 100 J/cm^2, 48 hours, Cell Counting Kit-8; FIG. 8. For orientation: Tetrazolium dyes change colour on reduction, which living cells bring about.
Experimental: Specifically, MKN45 cells were seeded on a 96-well plate for cell culture, so that the cell count became 5×10^3 cells/well and the amount of the culture solution became 50 μL/well, and thereafter, the cells were cultured overnight. […] Regarding serial dilutions, 20 μg/mL was set to be an initial concentration, from 4-fold serial dilutions (5.0 μg/mL, 1.25 μg/mL, 0.312 μg/mL, and 0.078 μg/mL), 5 complex serial dilution solutions were prepared. Besides, a medium alone that contained no complex was used as a zero control.
Such complex serial dilution solutions were each added in an amount of 50 μL/well to the cells cultured overnight, so that the final concentrations became 10 μg/mL, 2.5 μg/mL, 0.625 μg/mL, 0.156 μg/mL, and 0.039 μg/mL One hour and two hours after addition of the complex, the cells were irradiated with a light, using LED emitting a light having a wavelength of 690±10 nm, so that the irradiation energy became 100 J/cm^2. […] Each condition was set to be n=3. The dosage and administration were determined in accordance with the instruction manuals included with the kit, and after addition of the reagent, the mixture was incubated for 1.5 hours at 37° C., in a CO2 incubator. Thereafter, the absorbance at 450 nm was measured, and the mean value was then calculated, followed by background collection. […]
Series [3] concerns the target T1, Recombinant Human CEACAM-5/CD66e Protein, CF (R & D SYSTEMS) (human, UniProt P06731 35-685).
T1 construct: Purchased protein, amine-coupled to a CM5 chip; also called antigen CEACAM5
T1 sequence (looked up): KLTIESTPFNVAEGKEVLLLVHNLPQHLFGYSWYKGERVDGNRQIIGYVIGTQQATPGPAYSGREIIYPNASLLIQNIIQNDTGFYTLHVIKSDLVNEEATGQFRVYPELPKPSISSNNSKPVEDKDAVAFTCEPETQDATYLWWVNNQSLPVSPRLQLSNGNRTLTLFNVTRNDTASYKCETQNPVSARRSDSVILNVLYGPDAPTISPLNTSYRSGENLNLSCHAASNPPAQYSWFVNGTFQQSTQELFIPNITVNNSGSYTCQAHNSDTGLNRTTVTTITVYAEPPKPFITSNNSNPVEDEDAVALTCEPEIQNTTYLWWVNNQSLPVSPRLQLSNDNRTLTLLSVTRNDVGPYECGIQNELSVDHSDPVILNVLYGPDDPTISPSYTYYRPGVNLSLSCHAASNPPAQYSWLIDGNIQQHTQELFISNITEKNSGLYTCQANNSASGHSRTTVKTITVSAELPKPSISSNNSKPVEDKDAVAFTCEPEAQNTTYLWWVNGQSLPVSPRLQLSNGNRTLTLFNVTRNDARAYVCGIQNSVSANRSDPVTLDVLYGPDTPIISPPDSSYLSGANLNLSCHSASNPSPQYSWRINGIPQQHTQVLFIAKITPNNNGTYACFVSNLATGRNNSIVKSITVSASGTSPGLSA
Nature of the series: SPR (Biacore T200), CEACAM5 immobilized on CM5, CEA-V2122 as analyte, single-cycle kinetics, bivalent analysis fit. For orientation: Surface plasmon resonance follows binding to a sensor surface in real time, without labels.

Series [4] has as its target T2, CEACAM5 (Homo sapiens, UniProt P06731).
T2 sequence (P06731 35-676): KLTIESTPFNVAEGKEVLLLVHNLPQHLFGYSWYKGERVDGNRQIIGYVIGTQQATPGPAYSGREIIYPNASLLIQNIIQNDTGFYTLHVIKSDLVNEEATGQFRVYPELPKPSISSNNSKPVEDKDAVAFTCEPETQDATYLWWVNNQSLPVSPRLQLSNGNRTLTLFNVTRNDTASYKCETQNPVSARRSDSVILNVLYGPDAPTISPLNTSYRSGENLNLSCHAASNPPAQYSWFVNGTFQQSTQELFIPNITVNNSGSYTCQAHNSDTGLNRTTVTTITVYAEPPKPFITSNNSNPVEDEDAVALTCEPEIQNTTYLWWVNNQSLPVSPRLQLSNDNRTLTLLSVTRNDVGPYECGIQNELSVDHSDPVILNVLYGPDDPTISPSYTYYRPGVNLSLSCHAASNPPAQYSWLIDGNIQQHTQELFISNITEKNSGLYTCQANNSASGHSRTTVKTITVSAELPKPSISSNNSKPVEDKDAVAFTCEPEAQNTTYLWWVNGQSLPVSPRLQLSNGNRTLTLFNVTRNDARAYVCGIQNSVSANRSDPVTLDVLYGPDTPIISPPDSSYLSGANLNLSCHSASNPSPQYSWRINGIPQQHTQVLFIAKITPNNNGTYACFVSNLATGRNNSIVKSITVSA
Briefly: Cell staining of CEACAM5-expressing cell line using FITC-labeled CEA-V2122. The format is cell-based. The protocol:
In order to stain a CEACAM5 expression-positive cancer cell line, FTC labeling was carried out on the cell line, using 100 μg of a purified CEA-V2122 protein. Specifically, labeling was carried out using Fluorescein Labeling Kit—NH2 (DOJINDO LABORATORIES) in accordance with the dosage and administration described in the operating manual included with the kit, and the obtained product was defined to be CEA-V2122-FITC. Specific staining of the CEACAM5 expression-positive cancer cell line is as follows. That is, CEACAM5-positive human stomach cancer-derived MKN-45 cells and CEACAM5-negative human colon cancer-derived DLD1 cells were each seeded on a CELLSTAR, μClear, 96-well plate (Greiner) to a cell density of 2.0×10^4 cells/well, and thereafter, the cells were cultured overnight. Subsequently, a culture solution containing 20 nM CEA-V2122-FITC and 1 μM Hoechist was added to the 96-well plate to a concentration of 100 μL/well, and the obtained mixture was then reacted at 4° C. for 30 minutes. Thereafter, each image was taken using In Cell Analyzer 6000 (GE Healthcare Life Sciences).

Series [5] in a line: SPR (Biacore T200) interaction between immobilized CEA-V2122 and a modified biotin. The format is binding. The protocol:
Furthermore, the interaction between CEA-V2122 and a modified biotin was also analyzed using Biacore T200. The modified biotin was specifically the title compound 14 described in Example 1 of International Publication WO2018/07239. In addition, the analysis method was specifically as follows. That is, an amine-coupling kit was used, a target value was set to be 5000 RU, and the purified CEA-V2122 was immobilized on Sensor Chip CM5.

Series [6] deals with T2, CEACAM5. Nature of the series: SPR (Biacore T200) affinity of CEA-V2122 for immobilized antigen CEACAM5. The series is classed as binding. More on the design: purchased R & D SYSTEMS.
Where [7] appears, read: single-cycle kinetics, bivalent analysis mode, CEA-V2122 immobilized, modified biotin analyte.
Where [8] appears, read: single-cycle kinetics, bivalent analysis mode, CEACAM5 immobilized, CEA-V2122 analyte.

For the molecule `C[Si](C)(CCC[N+](CCCS(=O)(=O)[O-])(CCCS(=O)(=O)O)CCCS(=O)(=O)O)O[Si]1(O[Si](C)(C)CCC[N+](CCCS(=O)(=O)[O-])(CCCS(=O)(=O)O)CCCS(=O)(=O)O)N2/C3=N\C4=NC(=N\c5c6c(OCCCOC(=O)NCCCCCC(=O)NCCOCCOCCN(CC(=O)NCCCCNC(=O)CCCC[C@@H]7SC[C@@H]8NC(=N)N[C@@H]87)CC(=O)NCCCCNC(=O)CCCC[C@@H]7SC[C@@H]8NC(=N)N[C@@H]87)cccc6c(n51)/N=C1\N=C(NC2c2ccccc23)c2ccccc21)/c1ccccc14` (stereo partly drawn) [Compound 1], the tumor necrosis entry in series [1] was “necrosis can be induced to the tumor of the xenograft mouse model”. Moreover, the cytotoxicity result in series [2] was “exhibits cytotoxicity in a concentration-dependent manner”.

B1: CEA-V2122 (scFv)
chain: QVKLEQSGAEVVKPGASVKLSCKASGFNIKDSYMHWLRQGPGQRLEWIGWIDPENGDTEYAPKFQGKATFTTDTSANTAYLGLSSLRPEDTAVYYCNEGTPTGPYYFDYWGQGTLVTVSSGGGGSGGGGSGGGGSENVLTQSPSSMSVSVGDRVNIACSASSSVPYMHWLQQKPGKSPKLLIYLTSNLASGVPSRFSGSGSGTDYSLTISSVQPEDAATYYCQQRSSYPLTFGGGTKLEIKGGGGSGGGGAEAGITGTWSDQLGDTFIVTAGADGALTGTYENAVGGAESRYVLTGRYDSAPATDGSGTALGWTVAWKNNSKNAHSATTWSGQYVGGADAKINTQWLLTSGTTNANAWKSTLVGHDTFTKVKPSAASHHHHHH
notes: also called CEA-Cupid; scFv-V2122
With B1, the Kd in series [3] came out at 1.08 pM.

B2: CEA-V2122-FITC: purified CEA-V2122 protein labeled with Fluorescein Labeling Kit—NH2 (protein)
chain: B1 chain
Turning to B2, the “recognition of CEACAM5 on cells” value in series [4] (20 nM, 4° C., 30 minutes, CEACAM5-positive MKN-45 vs CEACAM5-negative DLD1 cells, FIG. 5) is given as “specifically recognizes CEACAM5 on the surface of the cell membrane”. Moreover, in series [4] (MKN45 cells, time series, FIG. 6), the “localisation of CEACAM5 after binding” value is “the CEACAM5 stays on the surface of the cell membrane”.

B3: CEA-V2122: scFv-type anti-CEACAM5 antibody bound with mutant streptavidin V2122 via linker GGGGSGGGG; SEQ ID NO: 3 (protein)
chain: B1 chain
Turning to B3, the “binding to a modified biotin” value in series [5] (from the KD value in the sensorgram, FIG. 4) is recorded as “strongly binds to a modified biotin”. Further, in series [5] (setting [7]), the ka1 is 3.792E+4 and the kd1 stood at 4.424E−6. For the same molecule, the “KD=kd1/ka1” value in series [6] (bivalent analysis mode) was 1.078E−12. Besides, in series [6] (from the KD value in the sensorgram, FIG. 3), the “binding to CEACAM5” value was “strongly binds to CEACAM5”. In series [6] (setting [8]), this molecule had a ka1 of 3.208E+5 and a kd1 of 3.461E−7.
